In the assay the target is Cdh1 (UniProt Q9R1K5). The assay is described as follows: Flag IP of Cdh1, HA-FMRP blot. As to conditions: reference: wild type FMRP; sites S499.

As for FMRP (from UniProt P35922) S499A, the “binding against the reference” value is listed as “stronger”.

These data come from publication PMC4492466.
